The results in this text go back to patent publication EP4610267A1, “CYCLIC DINUCLEOTIDES AND CONJUGATES THEREOF WITH ANTIBODIES” (priority 2024, dated 2025).

The term EC50 denotes the concentration that produces a half-maximal response.

The nature of series [1]: In vitro mouse plasma stability of antibody-CDN conjugates (payload CDN 2.2 retention on mAb by LC-MS). The class given is in vitro ADME. Particulars: retention of CDN 2.2 on mAb.
Description: (§2) In vitro plasma stability of ADC was performed by spiking mouse plasma with antibody-CDN conjugates (final concentration 100µg/mL). Samples were incubated in a 37°C incubator with 5% CO2, aliquots were taken at various time points and stored frozen for analysis.
(§3) Briefly, 25µL of plasma samples were incubated with biotinylated anti-human Fcy fragment mAb (final concetration 0.18mg/mL, Jackson ImmunoResearch cat # 109-065-098) for 30 min and then mixed with 30 µL Dynabead MyOne Streptavidin T1 (Invitrogen cat # 65604D) and 70 µL PBS. After 1 hour incubation, the beads were separated on a magnet, washed with PBS containing 0.05% Tween20, PBS and water, and ADCs were eluted in the presence of 0.2% of formic acid in water. Eluate was neutralized by adding ammonium formate (400mM final concentration) and ADCs were reduced with TCEP (40mM final concentration) for 30 minutes at room temperature. Samples were then measured by LC-MS and analyzed for compound-to-antibody ratio as described above.
Series [2] can be described thus: Compound-to-antibody ratio (DAR) of antibody CDN conjugates by LC-MS. As for the experimental part:
Antibody CDN-conjugates were analyzed to determine the extent of conjugation. A compound-to-antibody ratio was extrapolated from LC-MS data for reduced samples. LC-MS allows quantitation of the average number of molecules of linker-payload attached to an antibody in a conjugate sample. Mass spectral data enables identification of the component species in the mixture, e.g., LC, LC+1, LC+2, HC, HC+1, HC+2, etc. From the average loading on the LC and HC chains, the average compound to antibody ratio can be calculated for an antibody conjugate. A compound-to-antibody ratio for a given conjugate sample represents the average number of compound (linker-payload) molecules attached to a tetrameric antibody containing two light chains and two heavy chains. The samples were reduced with 40 mM TCEP or 5.5 mM DTT, injected onto a MassPREP Micro Desalting column (20 µm, 5-mm by 2.1-mm ID, Waters) equilibrated in 0.1% formic acid (FA) in H2O and eluted by a fast gradient (4min) to 0.1% FA in acetonitrile. The separation was carried out by AQUITY UPLC I-Class system (Waters) and was on-line coupled to Mass Spectrometer Synapt G2 (Waters) to acquire mass spectra using electrospray ionization in positive mode. The TOF mass range was set from m/z 500 to 4000. The raw spectrum was subtracted and deconvoluted (MaxEnt 1, Waters) to produce the final spectrum. Conjugates were profiled using analytical size-exclusion chromatography on Superdex 200 equilibrated in PBS pH7.4; aggregation was analyzed based on analytical size exclusion chromatography.

The target of a further series is T1, STING REF (Homo sapiens, UniProt Q86WV6).
T1 construct: expressed in transfected cells
In words: 293T STING digitonin reporter assay (REF haplotype). The class given is cell-based. The note with it: digitonin permeabilised 293T reporter cells. As for the experimental part: (§1) Digitonin Assay with 293T Reporter Cells. The generation of 293T reporter cells stably expressing different STING protein haplotypes (WT, HAQ, REF, AQ, or Q) was described previously (Novotna et al, J. Med. Chem. 2019,62, 10676). The cells were seeded at a density of 250 000 cells per cm^2 into 96 well white poly(D-lysine) coated plates in 100 µL of DMEM with high glucose supplemented with 10% heat inactivated FBS. Next day, the medium was removed, and compounds were added in 3-fold serial dilutions in a digitonin buffer containing 50 mM HEPES (pH 7.0), 100 mM KCl, 3 mM MgClz, 0.1 mM DTT, 85 mM sucrose, 0.2% (w/w) BSA, 1 mM ATP, 0.1 mM GTP, and 10 µg/mL digitonin A. After 30 min incubation at 37 °C with 5% CO2, the digitonin buffer was removed, cells were washed once with 100 µL of the cultivation medium, and 100 µL of fresh medium was added to each well. The plates with cells were further incubated for 5 h at 37 °C with 5% CO2. Thereafter, 50 µL of the medium was removed, and 30 µL of Bright-Glo Luciferase Assay System reagent was added to each well. […] Nonlinear regression curve fit with standard slope was used for EC50 value calculations. The EC50 value represents CDN concentration that gives half-maximal response of firefly luciferase in the 293T reporter assay.
On the technique in general: A reporter such as luciferase makes a cellular process visible.

A further series addresses T2, STING WT (Homo sapiens, UniProt Q86WV6, H232R).
T2 construct: expressed in transfected cells
In words: 293T STING digitonin reporter assay (WT haplotype). It counts as cell-based. Particulars: digitonin permeabilised 293T reporter cells. As for the experimental part:
as §1

A further series relates to STING Q. Description: 293T STING digitonin reporter assay (Q haplotype). It counts as cell-based, human. Particulars: digitonin permeabilised 293T reporter cells. As for the experimental part:
as §1

In the next series the target is T3, STING HAQ (Homo sapiens, UniProt Q86WV6, G230A/H232R/R293Q/R71H).
T3 construct: expressed in transfected cells
Description: 293T STING digitonin reporter assay (HAQ haplotype). It counts as cell-based. Particulars: digitonin permeabilised 293T reporter cells. As for the experimental part:
as §1

Another series deals with T4, STING AQ (Homo sapiens, UniProt Q86WV6, G230A/H232R/R293Q).
T4 construct: expressed in transfected cells
In words: 293T STING digitonin reporter assay (AQ haplotype). It counts as cell-based. Particulars: digitonin permeabilised 293T reporter cells. As for the experimental part:
as §1

Series [3] is described as follows: In vitro mouse plasma stability of antibody-CDN conjugates (payload CDN 2.2 retention on mAb by LC-MS). The class given is in vitro ADME.
Description: as §2, §3
In the next series the target is T5, TROP2 (UniProt P09758 27-323, limits assumed).
T5 sequence (looked up): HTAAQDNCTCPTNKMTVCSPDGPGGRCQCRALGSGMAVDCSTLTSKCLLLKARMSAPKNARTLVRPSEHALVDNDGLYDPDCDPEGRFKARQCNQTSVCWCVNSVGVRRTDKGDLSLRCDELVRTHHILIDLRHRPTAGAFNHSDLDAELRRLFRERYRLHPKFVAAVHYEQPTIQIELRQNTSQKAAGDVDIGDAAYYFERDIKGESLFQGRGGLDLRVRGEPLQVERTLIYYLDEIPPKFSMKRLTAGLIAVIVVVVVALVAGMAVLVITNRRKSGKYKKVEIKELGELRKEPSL
Description: cell-based or functional assay.

A further series deals with Her2 (UniProt P04626). Description: cell-based or functional assay.
Where [4] appears, read: monoclonal antibody: anti TROP2 mA5, 37°C.
Where [5] appears, read: compound conjugated to anti Her2 mA2 via interchain cysteines.

T3 sequence (Q86WV6 whole entry R71H/G230A/H232R/R293Q): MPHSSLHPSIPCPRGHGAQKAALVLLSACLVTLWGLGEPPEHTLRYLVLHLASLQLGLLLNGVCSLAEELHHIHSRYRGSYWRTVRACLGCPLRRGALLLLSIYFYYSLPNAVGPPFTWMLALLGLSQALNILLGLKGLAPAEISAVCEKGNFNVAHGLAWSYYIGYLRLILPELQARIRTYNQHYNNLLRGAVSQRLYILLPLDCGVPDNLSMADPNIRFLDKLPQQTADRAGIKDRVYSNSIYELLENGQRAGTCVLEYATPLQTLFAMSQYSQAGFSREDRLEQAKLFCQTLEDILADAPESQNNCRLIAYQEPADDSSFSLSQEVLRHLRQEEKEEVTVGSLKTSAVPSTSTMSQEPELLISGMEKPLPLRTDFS
T1 sequence (Q86WV6 whole entry): as the sequence (Q86WV6 whole entry R71H/G230A/H232R/R293Q) above, with H71R, A230G, R232H, Q293R counted along it
T4 sequence (Q86WV6 whole entry G230A/H232R/R293Q): as the sequence (Q86WV6 whole entry R71H/G230A/H232R/R293Q) above, with H71R counted along it
T2 sequence (Q86WV6 whole entry H232R): as the sequence (Q86WV6 whole entry R71H/G230A/H232R/R293Q) above, with H71R, A230G, Q293R counted along it

On to “4-((S)-2-((S)-2-(2-(2,5-dioxo-2,5-dihydro-1H-pyrrol-1-yl)acetamido)-3-methylbutanamido)-5-ureidopentanamido)benzyl (2-(((9-((6R,8R,9S,13aR,15R,16R,16aR,17R)-16,17-difluoro-3,11-dimercapto-3,11-dioxido-8-(6-oxo-1,6-dihydro-9H-purin-9-yl)decahydro-6,9-methanofuro[3,2-m][1,3,6,9,12]pentaoxa[2,10]diphosphacyclopentadecin-15-yl)-9H-purin-6-yl)carbamoyl)oxy)ethyl)(methyl)carbamate [Compound 3.3]”, for which the “Mouse plasma T ½” value was greater than 15 days in series [1] (monoclonal antibody: anti Her2 mA2, 37°C) and greater than 15 days in series [1] (setting [4]). In addition, the “Drug Antibody ratio (DAR)” value in [2] (setting [5]) is 3.7; in [2] (compound conjugated to isotype mAb (Table 18)), 4.0.
In the case of “4-((S)-2-((S)-2-(2-(2,5-dioxo-2,5-dihydro-1H-pyrrol-1-yl)acetamido)-3-methylbutanamido)-5-ureidopentanamido)benzyl (9-((6R,8R,9S,13aR,15R,16R,16aR,17R)-16,17-difluoro-3,11-dimercapto-3,1 1-dioxido-8-(6-oxo-1,6-dihydro-9H-purin-9-yl)decahydro-6,9-methanofuro[3,2-m][1,3,6,9,12]pentaoxa[2,10]diphosphacyclopentadecin-15-yl)-9H-purin-6-yl)carbamate [Compound 3.13]”, in [1] (setting [4]), the “Mouse plasma T ½” value was 9.6 days.
Turning to `Nc1ncnc2c1ncn2[C@@H]1O[C@@H]2OCP(=O)(S)O[C@@H]3[C@H](F)[C@@H](COP(=O)(S)OC[C@H]2[C@H]1F)O[C@H]3n1cnc2c(=O)[nH]cnc21` (single isomer, unassigned) [Compound 2.1], the EC50 stood at 140 nM at STING REF; 30 nM on STING WT; 350 nM in the series on STING Q; 180 nM at STING HAQ; 180 nM on STING AQ.
Regarding `CC(C)[C@H](NC(=O)CN1C(=O)C=CC1=O)C(=O)N[C@@H](CCCNC(N)=O)C(=O)Nc1ccc(COC(=O)N(C)CCOC(=O)Nc2ncnc3c2ncn3[C@@H]2O[C@H]3COP(=O)(S)O[C@@H]4[C@H](F)[C@@H](COP(=O)(S)OC[C@H]3[C@H]2F)O[C@H]4n2cnc3c(=O)[nH]cnc32)cc1` (stereo partly drawn) [Compound 3.3, 4-((S)-2-((S)-2-(2-(2,5-dioxo-2,5-dihydro-1H-pyrrol-1-yl)acetamido)-3-methylbutanamido)-5-ureidopentanamido)benzyl (2-(((9-((6R,8R,9S,13aR,15R,16R,16aR,17R)-16,17-difluoro-3,11-dimercapto-3,11-dioxido-8-(6-oxo-1,6-dihydro-9H-purin-9-yl)decahydro-6,9-methanofuro[3,2-m][1,3,6,9,12]pentaoxa[2,10]diphosphacyclopentadecin-15-yl)-9H-purin-6-yl)carbamoyl)oxy)ethyl)(methyl)carbamate], the “attachment to anti Her2 mAb2 in mouse plasma” value in [3] (attached to anti Her2 mAb2 via interchain cysteines (Fig. 3)) was “stable over period up to 15 days”. The “retention on anti-TROP2 mAb5” value in series [3] (attached to engineered light chain V110C and heavy chain S375C of mAb5 (Fig. 4)) is on record as “excellent retention”.
Regarding “(2S)-N-((2S)-1-((4-((((6R,8R,9S,13aR,15R,16R,16aR,17R)-15-(6-amino-9H-purin-9-yl)-16,17-difluoro-3-mercapto-3,11-dioxido-8-(6-oxo-1,6-dihydro-9H-purin-9-yl)decahydro-6,9-methanofuro[3,2-m][1,3,6,9,12]pentaoxa[2,10]diphosphacyclopentadecin-11-yl)thio)methyl)phenyl)amino)-1-oxopropan-2-yl)-2-(2-(2,5-dioxo-2,5-dihydro-1H-pyrrol-1-yl)acetamido)-3-methylbutanamide [Compound 3.19, reference compound]”, in series [2] (setting [5]), the “Drug Antibody ratio (DAR)” value amounted to 2.5.

B1: anti-TROP2 mAb5 (Sacituzumab, heavy chain S375C, light chain V110C) conjugated with Compound 3.3 (antibody, human IgG1, V domains shown)
VH: QVQLQQSGSELKKPGASVKVSCKASGYTFTNYGMNWVKQAPGQGLKWMGWINTYTGEPTYTDDFKGRFAFSLDTSVSTAYLQISSLKADDTAVYFCARGGFGSSYWYFDVWGQGSLVTVSS
VL: DIQLTQSPSSLSASVGDRVSITCKASQDVSIAVAWYQQKPGKAPKLLIYSASYRYTGVPDRFSGSGSGTDFTLTISSLQPEDFAVYYCQQHYITPLTFGAGTKVEIKR
modifications: Compound 3.3 on engineered C110 (EU numbering); Compound 3.3 on engineered C375 (EU numbering); DAR 3.7 for the whole antibody
Consider B1, for which, in the series with TROP2, the “HCC1954 IP10 EC50” value was determined as 8 nM and the “TROP2+ 293T EC50” value was determined as 8 nM.

B2: anti-TROP2 mAb5 (Sacituzumab, heavy chain S375C, light chain V110C) conjugated with Compound 3.16 (antibody, human IgG1, V domains shown)
VH: B1 VH
VL: B1 VL
modifications: Compound 3.16 on engineered C110 (EU numbering); Compound 3.16 on engineered C375 (EU numbering); DAR 3.3 for the whole antibody
Regarding B2, in the series with TROP2, the “HCC1954 IP10 EC50” value came to 5 nM and the “TROP2+ 293T EC50” value came out at 4 nM.

B3: anti-TROP2 mAb5 (Sacituzumab, heavy chain S375C, light chain V110C) conjugated with Compound 3.18 (antibody, human IgG1, V domains shown)
VH: B1 VH
VL: B1 VL
modifications: Compound 3.18 on engineered C110 (EU numbering); Compound 3.18 on engineered C375 (EU numbering); DAR 3.6 for the whole antibody
For the molecule B3, in the series with TROP2, the “HCC1954 IP10 EC50” value stood at 6 nM and the “TROP2+ 293T EC50” value is 2 nM.

B4: anti-TROP2 mAb5 (Sacituzumab, heavy chain S375C, light chain V110C) conjugated with Compound 3.17 (antibody, human IgG1, V domains shown)
VH: B1 VH
VL: B1 VL
modifications: Compound 3.17 on engineered C110 (EU numbering); Compound 3.17 on engineered C375 (EU numbering); DAR 3.6 for the whole antibody
As for B4, in the series with TROP2, the “HCC1954 IP10 EC50” value came to 8 nM and the “TROP2+ 293T EC50” value was 3 nM.

B5: anti-TROP2 mAb5 (Sacituzumab, heavy chain S375C, light chain V110C) conjugated with Compound 3.13 (antibody, human IgG1, V domains shown)
VH: B1 VH
VL: B1 VL
modifications: Compound 3.13 on engineered C110 (EU numbering); Compound 3.13 on engineered C375 (EU numbering); DAR 3.3 for the whole antibody
Take B5: in the series with TROP2, the “HCC1954 IP10 EC50” value is 2 nM and the “TROP2+ 293T EC50” value came to 3 nM.

B6: isotype mAb Libivirumab (anti HBsAg mAb) conjugated with Compound 3.4 (antibody, human IgG1, kappa, V domains shown)
VH: QVQLVESGGGVVRPGRSLRLSCAASGFAFSDYSINWVRQAPGKGLEWVAIISYDGRITYYRDSVKGRFTISRDDSKNTLYLQMNSLRTEDTAVYYCARQYYDFWSGSSVGRNYDGMDVWGLGTTVTVSS
VL: DIVMTQSPLSLSVTPGEPASISCRSSQSLLHRSGNNYLDWYLQKPGHSPQLLIYVGSNRASGVPDRFSGSGSGTEYTLKISRVEAEDVGVYYCMQALQTPRTFGQGTKLEIKR
Consider B6, for which, in the series with Her2, the HCC1954 IP10 EC50 is greater than 1000 nM.

B7: isotype mAb Libivirumab (anti HBsAg mAb) conjugated with Compound 3.3 (antibody, human IgG1, kappa, V domains shown)
VH: B6 VH
VL: B6 VL
In the series with Her2, B7 returned an HCC1954 IP10 EC50 greater than 1000 nM. In the series with TROP2, this molecule had an HCC1954 IP10 EC50 greater than 1000 nM and a TROP2+ 293T EC50 greater than 1000 nM.

B8: isotype mAb Libivirumab (anti HBsAg mAb) conjugated with Compound 3.13 (antibody, human IgG1, kappa, V domains shown)
VH: B6 VH
VL: B6 VL
In the case of B8, in the series with TROP2, the HCC1954 IP10 EC50 was greater than 1000 nM and the TROP2+ 293T EC50 was greater than 1000 nM.
